# Measured values from publication PMC3281842, “Crystal Structure of TDRD3 and Methyl-Arginine Binding Characterization of TDRD3, SMN and SPF30” (PLoS ONE, 2012).
# What was measured:
# [1] = target: PIWIL1-R4me1 (Homo sapiens) (UniProt Q96J94); settings: cited from earlier work
# [2] = target: PIWIL1-R4me2a (Homo sapiens) (UniProt Q96J94); settings: cited from earlier work
# [3] = target: PIWIL1-R4me2s (Homo sapiens) (UniProt Q96J94); settings: cited from earlier work
# [4] = target: H3R2me2a; experiment: fluorescence polarisation; fluorescein-labeled peptides; 20 mM Tris pH 7.5, 50 mM NaCl, 1 mM DTT, 0.01% Triton X-100; 25°C; one-site binding model; Kd the average of three independent measurements
# [5] = target: H3R2me2s; experiment: as above
# [6] = target: H3R17me2a; experiment: ITC; 20 mM Tris pH 8.0, 200 mM NaCl; 25°C; one-site binding model
# SND1 650-910, sequence (Q7KZF4 650-910): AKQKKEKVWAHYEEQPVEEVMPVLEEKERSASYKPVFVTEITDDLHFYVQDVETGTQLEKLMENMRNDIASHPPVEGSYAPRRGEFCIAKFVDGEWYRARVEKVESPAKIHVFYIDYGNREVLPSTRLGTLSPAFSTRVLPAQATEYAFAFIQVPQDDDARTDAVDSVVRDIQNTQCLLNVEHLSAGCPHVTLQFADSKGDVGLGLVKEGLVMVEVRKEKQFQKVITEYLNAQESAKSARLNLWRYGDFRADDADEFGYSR
Kd [4],Kd [5],Kd [6],Substance,Kd [1],Kd [2],Kd [3]
–,–,–,SND1 650-910 (from UniProt Q7KZF4),19 µM,42 µM,10 µM
> 500 µM,> 500 µM,> 1000 µM,TDRD3 (aa 520–633) (from UniProt Q9H7E2 520-633) (domain or fragment),–,–,–
